The values below come from paper PMC3584034.

What is called Kd is a measure of binding affinity in units of concentration.

Data set [1] addresses T1, EpCAM (human (breast and colon cancer cell lines)) (UniProt P16422).
T1 sequence: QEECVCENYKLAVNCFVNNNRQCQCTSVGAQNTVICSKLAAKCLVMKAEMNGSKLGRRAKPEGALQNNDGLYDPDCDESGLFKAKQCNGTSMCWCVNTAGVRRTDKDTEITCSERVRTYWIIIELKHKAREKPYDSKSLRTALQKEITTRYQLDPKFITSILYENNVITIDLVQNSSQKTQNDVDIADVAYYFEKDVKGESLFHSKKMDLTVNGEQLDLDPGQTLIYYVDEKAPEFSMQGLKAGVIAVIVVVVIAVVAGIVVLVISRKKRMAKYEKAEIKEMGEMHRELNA
Briefly: cell binding (method not given). Conditions: 2'-fluoropyrimidine (Methods: 2'-fluoropyrimidine or 2'-O-methyl-pyrimidine bases); 3' inverted dT; FFPE staining: PBS, 5 mM MgCl2, 0.1 mg/mL tRNA, 1 mg/mL BSA, 10% dextran sulphate, 500 ug/mL heparin, 100 nM aptamer, 15 min, 37 C; flow cytometry: 100 nM ….

Data set [2] deals with T1, EpCAM (human (breast and colon cancer cell lines)). As to the kind of experiment: cell binding (cited). Conditions: 2'-fluoropyrimidine (Methods: 2'-fluoropyrimidine or 2'-O-methyl-pyrimidine bases); 3' inverted dT; FFPE staining: PBS, 5 mM MgCl2, 0.1 mg/mL tRNA, 1 mg/mL BSA, 10% dextran sulphate, 500 ug/mL heparin, 100 nM aptamer, 15 min, 37 C; flow cytometry: 100 nM …; cited from earlier work. (A flow cytometer gives signals particle by particle.)

With ACGUAUCCCUUUUCGCGUA [Ep23], the Kd in data set [1] amounted to 37 nM.

As to GCGACUGGUUACCCGGUCG [DT3], in data set [2], the Kd is 158 nM.
